Measured values reported in patent US20220409745, “COMPOSITIONS AND METHODS OF USING ENGINEERED FUSION PROTEINS THAT BIND G4C2 HUMAN REPEATS” (The Regents of the University of California, published 2022).

Tests used:
[1] = target: T1, ZFP106 Znf1 (Z1) (Homo sapiens, UniProt Q9H2Y7 SEQ:1-25); test: EMSA; binds G-q structure; settings: G4
[2] = target: T1, ZFP106 Znf1 (Z1); test: EMSA; binds non-G-q structure; settings: non-G4

T1 sequence (Q9H2Y7 20-44): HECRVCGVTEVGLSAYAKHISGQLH

Row | Binder | binding result [1] | binding result [2]
1 | GGGGCCGGGGCCGGGGCCGGGGCCGGGGCCGGGGCCGGGGCCGGGGCC (ssRNA) [(G4C2)8 RNA G-quadruplex] | binds | –
2 | GGGGCCGGGGCCGGGGCCGGGGCCGGGGCCGGGGCCGGGGCCGGGGCC (ssRNA) [(G4C2)8 RNA non-G-quadruplex] | – | binds
